Data on 1 molecule can be found in PMC5509376 (PLoS Pathogens, 2017).

The target in this test is T1, VPS10P domain of sortilin fused with GST (mouse, UniProt Q6PHU5 76-750).
T1 construct: also called GST-VPS10P; GST-tagged VPS10P domain of sortilin
T1 sequence (looked up): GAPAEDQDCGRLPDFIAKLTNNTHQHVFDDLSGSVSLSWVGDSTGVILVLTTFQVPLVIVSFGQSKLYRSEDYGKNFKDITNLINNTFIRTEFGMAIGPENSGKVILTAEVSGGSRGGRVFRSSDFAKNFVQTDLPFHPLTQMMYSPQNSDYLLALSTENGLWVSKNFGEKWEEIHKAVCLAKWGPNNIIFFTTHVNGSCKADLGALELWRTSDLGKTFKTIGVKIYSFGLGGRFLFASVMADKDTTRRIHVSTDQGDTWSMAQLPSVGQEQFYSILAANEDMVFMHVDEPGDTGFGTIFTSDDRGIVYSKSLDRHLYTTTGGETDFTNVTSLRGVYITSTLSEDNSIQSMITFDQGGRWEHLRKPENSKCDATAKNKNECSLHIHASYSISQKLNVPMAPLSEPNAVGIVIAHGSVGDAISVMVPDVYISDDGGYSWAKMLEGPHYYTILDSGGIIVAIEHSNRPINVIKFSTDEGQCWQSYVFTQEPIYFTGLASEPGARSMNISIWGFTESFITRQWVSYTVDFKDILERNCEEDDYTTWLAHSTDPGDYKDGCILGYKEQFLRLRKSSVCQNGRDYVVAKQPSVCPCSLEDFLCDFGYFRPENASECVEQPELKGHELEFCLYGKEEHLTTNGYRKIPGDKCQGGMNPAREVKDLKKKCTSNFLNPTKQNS
The experiment in a line: pull-down. As to conditions: both partners purified.

B1: His-tagged full-length recombinant PrP (natural protein)
chain: not shown
For the molecule B1, the binding result was “binds”.
